6 molecules from publication PMC10415144, “Structural insights into CodY activation and DNA recognition” can be followed below.

Where a chain is given by its changes, count along the chain named.

Data set [1] deals with T1, EfCodY (Enterococcus faecalis, UniProt Q834K5 1-260).
T1 sequence: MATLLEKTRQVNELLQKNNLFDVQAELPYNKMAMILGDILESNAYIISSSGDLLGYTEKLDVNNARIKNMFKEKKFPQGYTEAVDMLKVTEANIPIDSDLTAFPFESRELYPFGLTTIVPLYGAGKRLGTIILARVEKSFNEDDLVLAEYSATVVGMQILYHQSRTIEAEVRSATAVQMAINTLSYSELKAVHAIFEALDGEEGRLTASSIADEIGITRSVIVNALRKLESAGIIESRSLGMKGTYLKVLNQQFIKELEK
In words: BLI; 10 mM Leu; BLI: 20 mM Tris-HCl pH 8, 150 mM NaCl, 2 mM MgCl2, 0.1% NP-40, 25 C; 2 mM GTP and/or 10 mM Ile/Leu/Val as stated. Conditions: protein: recombinant; tags: His6 removed by TEV; N-terminal Gly-Ala remnant; chain copies: 4; label: 5'-biotin on one strand; 3-nt overhang at biotinylated 5' end. For orientation: In BLI a coated tip is dipped into the sample, and binding shifts an interference pattern.

Data set [2] has as its target T2, SaCodY (Staphylococcus aureus, UniProt Q2FHI3 1-257).
T2 sequence: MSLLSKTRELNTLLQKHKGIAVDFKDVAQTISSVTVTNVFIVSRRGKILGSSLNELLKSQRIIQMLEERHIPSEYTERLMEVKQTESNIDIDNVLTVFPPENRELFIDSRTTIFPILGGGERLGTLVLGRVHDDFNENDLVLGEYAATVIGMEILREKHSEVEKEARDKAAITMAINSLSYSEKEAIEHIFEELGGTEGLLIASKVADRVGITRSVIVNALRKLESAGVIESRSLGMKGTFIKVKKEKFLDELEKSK
In words: BLI; Ile + GTP (implied); BLI: 20 mM Tris-HCl pH 8, 150 mM NaCl, 2 mM MgCl2, 0.1% NP-40, 25 C; 2 mM GTP and/or 10 mM Ile/Leu/Val as stated. Conditions: protein: recombinant; tags: His6 removed by TEV; N-terminal Gly-Ala remnant; chain copies: 4; label: 5'-biotin on one strand; 3-nt overhang at biotinylated 5' end.

The target in data set [3] is T1, EfCodY. In words: X-ray crystallography; Leu (bound in dimer 1 only); two dimers per duplex; BLI: 20 mM Tris-HCl pH 8, 150 mM NaCl, 2 mM MgCl2, 0.1% NP-40, 25 C; 2 mM GTP and/or 10 mM Ile/Leu/Val as stated. Particulars: protein: recombinant; tags: His6 removed by TEV; N-terminal Gly-Ala remnant; chain copies: 4; blunt.
Data set [4] has as its target T2, SaCodY. In words: X-ray crystallography; Ile + GTP; two dimers per duplex; BLI: 20 mM Tris-HCl pH 8, 150 mM NaCl, 2 mM MgCl2, 0.1% NP-40, 25 C; 2 mM GTP and/or 10 mM Ile/Leu/Val as stated. Conditions: protein: recombinant; tags: His6 removed by TEV; N-terminal Gly-Ala remnant; chain copies: 4; blunt.
For data set [5], the target named is T1, EfCodY. In words: BLI; 1 uM protein; 10 mM Leu; BLI: 20 mM Tris-HCl pH 8, 150 mM NaCl, 2 mM MgCl2, 0.1% NP-40, 25 C; 2 mM GTP and/or 10 mM Ile/Leu/Val as stated. Conditions: protein: recombinant; tags: His6 removed by TEV; N-terminal Gly-Ala remnant; chain copies: 4; label: 5'-biotin on one strand; 3-nt overhang at biotinylated 5' end.
Data set [6] concerns the target T2, SaCodY. In words: BLI; 1 uM protein; 10 mM Ile + 2 mM GTP; BLI: 20 mM Tris-HCl pH 8, 150 mM NaCl, 2 mM MgCl2, 0.1% NP-40, 25 C; 2 mM GTP and/or 10 mM Ile/Leu/Val as stated. Conditions: protein: recombinant; tags: His6 removed by TEV; N-terminal Gly-Ala remnant; chain copies: 4; label: 5'-biotin on one strand; 3-nt overhang at biotinylated 5' end.
Data set [7] concerns the target EfCodY quadruple mutant (Enterococcus faecalis, UniProt Q834K5 1-260, Y186A;R238A;L240A;Y246A). In words: BLI; 8 uM protein, 10 mM Leu; BLI: 20 mM Tris-HCl pH 8, 150 mM NaCl, 2 mM MgCl2, 0.1% NP-40, 25 C; 2 mM GTP and/or 10 mM Ile/Leu/Val as stated. Particulars: protein: recombinant; tags: His6 removed by TEV; N-terminal Gly-Ala remnant; chain copies: 2; label: 5'-biotin on one strand; 3-nt overhang at biotinylated 5' end.

The target in data set [8] is T2, SaCodY. In words: BLI; 1 uM SaCodY; Ile + GTP (implied); BLI: 20 mM Tris-HCl pH 8, 150 mM NaCl, 2 mM MgCl2, 0.1% NP-40, 25 C; 2 mM GTP and/or 10 mM Ile/Leu/Val as stated. Particulars: protein: recombinant; tags: His6 removed by TEV; N-terminal Gly-Ala remnant; chain copies: 4; label: 5'-biotin on one strand; 3-nt overhang at biotinylated 5' end.

B1: hutP operator overlapping sites (dsDNA)
DNA 1: AGTTAATAGTTATCAGAATTTTTAGGAATTGAGTG
DNA 2: CACTCAATTCCTAAAAATTCTGATAACTATTAACT
B1: the binding result in data set [1] is “binds”. Further, the Kd in data set [2] is 598 nM.

B2: 30-bp crystallization DNA (dsDNA)
DNA 1: GATAATTTTCAGAATTTTCAGAAAATTTAG
DNA 2: CTAAATTTTCTGAAAATTCTGAAAATTATC
Take B2: the binding result in data set [3] and in data set [4] was “binds” throughout.

B3: hutP1 single site (dsDNA)
DNA 1: AGTTAATAGTTATCAGAATTTTTAGG
DNA 2: CCTAAAAATTCTGATAACTATTAACT
Consider B3, for which, in data set [2], the Kd was 1230 nM.

B4: consensus T>G (dsDNA)
DNA 1: CCGCCGGATAATTTGCAGCATTTGCAGCAAATTTAGCCG
DNA 2: CGGCTAAATTTGCTGCAAATGCTGCAAATTATCCGGCGG
For the molecule B4, the binding result in data set [5] and in data set [6] was “no binding” each time.

B5: 24-nt sequence-optimized overlapping sites (consensus) (dsDNA)
DNA 1: B4 DNA 1 with G15T, C19A, G24T, C28A
DNA 2: B4 DNA 2 with G12T, C16A, G21T, C25A
For the molecule B5, the binding result in data set [7] is recorded as “no binding”.

B6: hutP2 single site (dsDNA)
DNA 1: AGTTCAGAATTTTTAGGAATTGAGTG
DNA 2: CACTCAATTCCTAAAAATTCTGAACT
For B6, the binding result in data set [8] was “no binding”.

As usually defined, the Kd is the equilibrium constant for the complex coming apart.
